Test results taken from paper PMC2994726 (PLoS ONE, 2010).

Legend:
[1] = target: Luc-tagged rat AT1a receptor DRY/AAY truncated after serine 331 (DRY/AAY 331Δ) (rat) (UniProt P25095); experiment: FRET or BRET; BRET2 in live HEK293 cells co-transfected with Luc-tagged rAT1aR and GFP2-β-arrestin2; dose-response to Ang II, read 15 min after agonist addition
[2] = target: Luc-tagged rat AT1a receptor DRY/AAY, full length (rat) (UniProt P25095); experiment: as above
[3] = target: Luc-tagged rat AT1a receptor DRY/AAY truncated after serine 331 (DRY/AAY 331Δ) (rat) (UniProt P25095); experiment: FRET or BRET; BRET2 in live HEK293 cells co-transfected with Luc-tagged rAT1aR and GFP2-β-arrestin2; dose-response to SII Ang II, read 15 min after agonist addition
[4] = target: Luc-tagged rat AT1a receptor DRY/AAY, full length (rat) (UniProt P25095); experiment: as above
[5] = target: FLAG-tagged rat AT1a receptor DRY/AAY truncated after serine 331 (DRY/AAY 331Δ) (rat) (UniProt P25095); experiment: radioligand binding; whole-cell heterologous competition on transfected COS-7 cells: 1 nM 3H-Ang II tracer and increasing unlabeled SII Ang II, 3 h at 4°C; pKi calculated from Ang II KD values of experiments run in parallel
[6] = target: FLAG-tagged rat AT1a receptor DRY/AAY, full length (rat) (UniProt P25095); experiment: as above
[7] = target: T1, FLAG-tagged rat AT1a receptor (rAT1aR), WT, full length (rat, UniProt P25095 1-359); experiment: as above; conditions: one partner purified
T1 construct: Angiotensin II type 1a receptor (AT1aR), rat, full length; also called AT1R; Angiotensin II type 1 receptor; source: COS-7, transiently transfected, on whole cells; not shown: FLAG, N-terminal, kept
T1 sequence (looked up): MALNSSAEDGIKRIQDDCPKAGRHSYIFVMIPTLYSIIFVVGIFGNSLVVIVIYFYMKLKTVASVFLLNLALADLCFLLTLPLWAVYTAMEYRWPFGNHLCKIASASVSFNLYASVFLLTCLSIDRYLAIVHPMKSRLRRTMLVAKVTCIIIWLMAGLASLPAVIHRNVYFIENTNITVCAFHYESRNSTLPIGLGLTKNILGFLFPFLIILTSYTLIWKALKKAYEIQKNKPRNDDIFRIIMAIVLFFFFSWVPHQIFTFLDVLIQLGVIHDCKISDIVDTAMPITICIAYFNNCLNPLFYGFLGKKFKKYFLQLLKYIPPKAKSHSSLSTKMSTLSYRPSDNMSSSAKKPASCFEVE

[8] = target: T2, FLAG-tagged rat AT1a receptor WT truncated after serine 331 (WT 331Δ) (rat, UniProt P25095 1-331); experiment: as above; conditions: one partner purified
T2 construct: source: COS-7, transiently transfected, on whole cells; not shown: FLAG, N-terminal, kept
T2 sequence (looked up): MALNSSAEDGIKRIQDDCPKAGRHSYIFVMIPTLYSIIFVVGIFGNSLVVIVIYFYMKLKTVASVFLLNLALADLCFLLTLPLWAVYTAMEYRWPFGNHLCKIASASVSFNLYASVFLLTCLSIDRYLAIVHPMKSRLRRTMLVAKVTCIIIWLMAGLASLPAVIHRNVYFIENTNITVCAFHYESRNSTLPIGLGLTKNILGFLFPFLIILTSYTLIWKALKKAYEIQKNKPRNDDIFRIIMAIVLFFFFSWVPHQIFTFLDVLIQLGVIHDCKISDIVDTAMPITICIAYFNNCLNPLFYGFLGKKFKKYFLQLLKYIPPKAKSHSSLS

GFP2-tagged β-arrestin2 (from UniProt P32121 1-409) (natural protein)
pEC50 of Ang II for induced recruitment (BRET2) [1]: 8.2 | pEC50 of Ang II for induced recruitment (BRET2) [2]: 8.2 | pEC50 of SII Ang II for induced recruitment (BRET2, from normalized curves) [3]: 7 | pEC50 of SII Ang II for induced recruitment (BRET2) [4]: 7.5

Sar1-Ile4-Ile8 (SII) Ang II (peptide)
pKi [5]: 6.2 | pKi [6]: 6.1

GRVIIHPI (sarcosine at position 1 (Sar1)) [Sar1-Ile4-Ile8 (SII) Ang II]
pKi [7]: 5.9 | pKi [8]: 6
